Data as given in US20250002945, “NEW TALE PROTEIN SCAFFOLDS WITH IMPROVED ON-TARGET/OFF-TARGET ACTIVITY RATIOS” (CELLECTIS SA, published 2025).

Assays:
Details in all cases: tags: SV40 NLS; FokI fusion
[1] = molecular target: T1, IgH (2) left V2 TALEN (synthetic, UniProt Q56830 SEQ:15-719); test: cell_activity; T cells, mostly above 70%
T1 chain: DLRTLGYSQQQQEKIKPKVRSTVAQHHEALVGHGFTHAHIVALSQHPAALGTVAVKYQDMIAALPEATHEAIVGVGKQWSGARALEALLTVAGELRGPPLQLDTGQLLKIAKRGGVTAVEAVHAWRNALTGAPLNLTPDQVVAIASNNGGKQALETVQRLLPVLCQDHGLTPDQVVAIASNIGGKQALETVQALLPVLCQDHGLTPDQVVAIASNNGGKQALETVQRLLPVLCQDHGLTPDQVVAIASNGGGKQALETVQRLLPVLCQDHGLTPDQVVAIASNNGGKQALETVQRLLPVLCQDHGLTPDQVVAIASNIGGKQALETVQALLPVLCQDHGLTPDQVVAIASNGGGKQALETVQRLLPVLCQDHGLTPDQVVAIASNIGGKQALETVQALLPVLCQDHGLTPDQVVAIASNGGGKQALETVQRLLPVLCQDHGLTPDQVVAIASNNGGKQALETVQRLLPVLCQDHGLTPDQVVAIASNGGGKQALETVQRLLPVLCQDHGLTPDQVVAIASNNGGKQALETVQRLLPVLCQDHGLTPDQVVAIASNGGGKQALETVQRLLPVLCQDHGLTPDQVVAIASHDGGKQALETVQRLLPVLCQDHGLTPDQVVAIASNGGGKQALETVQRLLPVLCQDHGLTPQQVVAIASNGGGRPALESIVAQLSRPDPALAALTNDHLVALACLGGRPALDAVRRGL

[2] = molecular target: T2, IgH (2) right V2 TALEN (synthetic, UniProt Q56830 SEQ:15-719); test: cell_activity; T cells, mostly above 70%
T2 chain: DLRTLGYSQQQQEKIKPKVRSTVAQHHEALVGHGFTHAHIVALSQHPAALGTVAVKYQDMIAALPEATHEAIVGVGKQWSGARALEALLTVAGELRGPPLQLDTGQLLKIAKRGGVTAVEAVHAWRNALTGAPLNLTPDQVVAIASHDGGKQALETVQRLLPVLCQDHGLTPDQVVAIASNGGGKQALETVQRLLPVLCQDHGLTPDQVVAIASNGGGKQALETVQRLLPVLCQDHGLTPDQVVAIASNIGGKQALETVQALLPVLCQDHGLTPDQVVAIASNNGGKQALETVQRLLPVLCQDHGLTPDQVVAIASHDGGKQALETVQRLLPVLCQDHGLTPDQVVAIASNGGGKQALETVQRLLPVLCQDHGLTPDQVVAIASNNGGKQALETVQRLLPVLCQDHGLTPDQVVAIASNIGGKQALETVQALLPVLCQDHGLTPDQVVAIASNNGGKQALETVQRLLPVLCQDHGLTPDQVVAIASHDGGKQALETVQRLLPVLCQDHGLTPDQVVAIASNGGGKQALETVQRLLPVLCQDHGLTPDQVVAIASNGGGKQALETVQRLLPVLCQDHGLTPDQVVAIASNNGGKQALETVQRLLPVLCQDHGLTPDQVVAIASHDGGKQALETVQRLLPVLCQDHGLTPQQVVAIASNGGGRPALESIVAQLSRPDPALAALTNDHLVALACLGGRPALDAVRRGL

[3] = molecular target: T3, GADPH (1) left V2 TALEN (synthetic, UniProt Q56830 SEQ:15-719); test: cell_activity; T cells, mostly above 70%
T3 chain: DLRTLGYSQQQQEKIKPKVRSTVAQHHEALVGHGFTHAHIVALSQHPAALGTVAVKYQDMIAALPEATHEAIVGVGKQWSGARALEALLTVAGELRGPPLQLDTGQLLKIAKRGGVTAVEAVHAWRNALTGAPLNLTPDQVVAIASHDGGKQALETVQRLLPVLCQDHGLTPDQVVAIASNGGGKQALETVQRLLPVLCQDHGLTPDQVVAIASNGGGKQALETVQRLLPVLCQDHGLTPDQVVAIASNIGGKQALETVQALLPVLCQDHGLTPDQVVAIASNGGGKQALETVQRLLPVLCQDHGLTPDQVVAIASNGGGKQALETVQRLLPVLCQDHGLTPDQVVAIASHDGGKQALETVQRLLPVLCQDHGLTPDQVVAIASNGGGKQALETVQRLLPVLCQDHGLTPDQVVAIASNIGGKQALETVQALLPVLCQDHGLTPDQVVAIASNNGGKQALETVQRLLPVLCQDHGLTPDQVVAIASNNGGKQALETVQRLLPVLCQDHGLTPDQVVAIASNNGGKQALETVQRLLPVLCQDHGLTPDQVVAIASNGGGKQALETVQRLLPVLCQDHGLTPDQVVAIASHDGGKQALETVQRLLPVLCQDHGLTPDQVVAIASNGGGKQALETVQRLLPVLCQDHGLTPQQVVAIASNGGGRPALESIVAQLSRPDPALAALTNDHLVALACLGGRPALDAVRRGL

[4] = molecular target: T4, GADPH (1) right V2 TALEN (synthetic, UniProt Q56830 SEQ:15-719); test: cell_activity; T cells, mostly above 70%
T4 chain: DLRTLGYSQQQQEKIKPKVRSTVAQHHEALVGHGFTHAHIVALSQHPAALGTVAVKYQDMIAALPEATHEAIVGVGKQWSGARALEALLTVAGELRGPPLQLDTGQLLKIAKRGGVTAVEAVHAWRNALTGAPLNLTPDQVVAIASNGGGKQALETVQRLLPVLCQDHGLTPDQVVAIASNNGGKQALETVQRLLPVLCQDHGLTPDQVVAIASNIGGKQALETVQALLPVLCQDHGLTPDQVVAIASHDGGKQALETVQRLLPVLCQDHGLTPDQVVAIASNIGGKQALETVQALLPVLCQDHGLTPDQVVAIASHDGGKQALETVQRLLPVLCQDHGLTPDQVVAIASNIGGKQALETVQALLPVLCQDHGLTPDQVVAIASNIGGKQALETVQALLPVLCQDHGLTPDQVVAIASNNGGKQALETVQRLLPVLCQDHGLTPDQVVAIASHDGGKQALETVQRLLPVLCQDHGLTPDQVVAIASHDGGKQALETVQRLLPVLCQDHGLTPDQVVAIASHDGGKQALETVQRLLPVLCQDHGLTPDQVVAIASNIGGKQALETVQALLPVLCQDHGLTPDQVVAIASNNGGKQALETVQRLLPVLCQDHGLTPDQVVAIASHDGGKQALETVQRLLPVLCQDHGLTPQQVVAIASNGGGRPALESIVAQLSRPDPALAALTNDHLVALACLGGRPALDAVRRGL

[5] = molecular target: T5, GADPH (2) left V2 TALEN (synthetic, UniProt Q56830 SEQ:15-719); test: cell_activity; T cells, mostly above 70%
T5 chain: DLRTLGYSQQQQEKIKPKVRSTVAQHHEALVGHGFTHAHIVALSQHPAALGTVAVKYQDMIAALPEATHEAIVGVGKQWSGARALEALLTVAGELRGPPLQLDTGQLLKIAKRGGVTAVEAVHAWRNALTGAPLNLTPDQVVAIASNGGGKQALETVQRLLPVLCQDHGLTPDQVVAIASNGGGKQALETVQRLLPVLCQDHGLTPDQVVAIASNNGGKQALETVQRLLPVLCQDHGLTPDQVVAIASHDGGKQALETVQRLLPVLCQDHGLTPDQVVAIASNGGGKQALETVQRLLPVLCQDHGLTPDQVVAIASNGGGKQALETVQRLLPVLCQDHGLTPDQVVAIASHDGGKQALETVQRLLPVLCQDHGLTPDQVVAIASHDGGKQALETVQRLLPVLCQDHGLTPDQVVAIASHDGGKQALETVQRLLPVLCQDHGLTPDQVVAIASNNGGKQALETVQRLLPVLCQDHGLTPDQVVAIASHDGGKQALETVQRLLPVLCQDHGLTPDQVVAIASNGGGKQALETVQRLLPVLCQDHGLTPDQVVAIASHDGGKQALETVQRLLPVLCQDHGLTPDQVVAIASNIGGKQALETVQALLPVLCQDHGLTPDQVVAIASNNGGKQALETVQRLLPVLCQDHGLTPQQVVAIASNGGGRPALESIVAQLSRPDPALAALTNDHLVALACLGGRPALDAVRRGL

[6] = molecular target: T6, GADPH (2) right V2 TALEN (synthetic, UniProt Q56830 SEQ:15-719); test: cell_activity; T cells, mostly above 70%
T6 chain: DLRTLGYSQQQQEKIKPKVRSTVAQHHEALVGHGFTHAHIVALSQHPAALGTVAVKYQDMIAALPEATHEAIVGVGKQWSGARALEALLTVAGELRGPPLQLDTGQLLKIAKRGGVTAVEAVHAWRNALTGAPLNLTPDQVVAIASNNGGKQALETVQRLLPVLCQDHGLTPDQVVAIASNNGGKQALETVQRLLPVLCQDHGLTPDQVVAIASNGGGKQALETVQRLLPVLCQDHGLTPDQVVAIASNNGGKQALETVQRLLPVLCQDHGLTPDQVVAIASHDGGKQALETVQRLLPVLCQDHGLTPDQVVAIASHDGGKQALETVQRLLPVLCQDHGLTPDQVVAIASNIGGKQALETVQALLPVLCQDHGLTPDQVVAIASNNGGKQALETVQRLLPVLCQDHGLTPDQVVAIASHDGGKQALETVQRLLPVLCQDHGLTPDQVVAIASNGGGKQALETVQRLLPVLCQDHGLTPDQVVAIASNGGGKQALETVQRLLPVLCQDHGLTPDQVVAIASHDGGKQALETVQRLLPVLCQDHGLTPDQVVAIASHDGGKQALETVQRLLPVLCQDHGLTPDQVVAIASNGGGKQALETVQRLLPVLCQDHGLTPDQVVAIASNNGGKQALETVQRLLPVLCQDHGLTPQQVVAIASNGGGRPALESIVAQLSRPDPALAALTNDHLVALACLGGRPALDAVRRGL

[7] = molecular target: CS1 TALEN left V0 FokI Y88A (synthetic, UniProt Q56830, Y88A (FokI domain, SEQ ID NO:109 numbering)); test: cell_activity; paired with V0 monomer
[8] = molecular target: CS1 TALEN left V0 FokI D84A (synthetic, UniProt Q56830, D84A (FokI domain, SEQ ID NO:109 numbering)); test: cell_activity; paired with V0 monomer
[9] = molecular target: CS1 TALEN left V0 FokI G91A (synthetic, UniProt Q56830, G91A (FokI domain, SEQ ID NO:109 numbering)); test: cell_activity; paired with V0 monomer

B1: IgH (2) left half-site (dsDNA)
DNA 1: TGAGTGATATGTGTCTG
DNA 2: CAGACACATATCACTCA
Work on B1 yielded an activity [1] of over 50 % indels.

B2: IgH (2) right half-site (dsDNA)
DNA 1: AGCAAGCTCAGCTAAGA
DNA 2: TCTTAGCTGAGCTTGCT
In the case of B2, the activity [2] is reported as over 50 % indels.

B3: GADPH (1) left half-site (dsDNA)
DNA 1: TCTTATTCTAGGGTCTG
DNA 2: CAGACCCTAGAATAAGA
For B3, the activity [3] was over 50 % indels.

B4: GADPH (1) right half-site (dsDNA)
DNA 1: AGCTGGGCTTGTGTCAA
DNA 2: TTGACACAAGCCCAGCT
Work on B4 yielded an activity [4] of over 50 % indels.

B5: GADPH (2) left half-site (dsDNA)
DNA 1: TTTGCTTCCCGCTCAGA
DNA 2: TCTGAGCGGGAAGCAAA
B5 was tested, and the activity [5] was over 50 % indels.

B6: GADPH (2) right half-site (dsDNA)
DNA 1: ACAGGAAGCTGGCACCA
DNA 2: TGGTGCCAGCTTCCTGT
B6 showed an activity [6] of over 50 % indels.

B7: CS1 left half-site (dsDNA)
DNA 1: TTCCAGAGAGCAATATG
DNA 2: CATATTGCTCTCTGGAA
B7 was tested, and the binding signal [7] was > 100 % of WT FokI, the binding signal [8] was > 100 % of WT FokI and the binding signal [9] was > 100 % of WT FokI.
